In US20140275487A1:

Biological target: T4L-β2AR (N-terminally fused T4 lysozyme-β2AR construct truncated in position 365), BI-167107 bound (human)
Assay: crystal structure

- buried surface for GαsRas: 1300 A^2
- buried surface for the β2AR: 1280 A^2
- total buried surface of the β2AR-GαsRas interface: 2580 A^2
Substance: Gαs subunit of the heterotrimeric Gs protein (from UniProt P04896 2-394)
